From US20040170601A1, “Method of improving the growth performance of an animal” (priority 2001, published 2004)
Several values for one entry are separate records, joined by “and”; a condition that tells them apart may be missing. Equal values may be shown once. Entries after “also recorded” stand apart in the source; their conditions may differ.

Tests used:
[1] = system: H. parasuis, APP and Swine dysentry; assay: Example 4: deaths and production loss from infectious disease; type: in vivo, pigs; conditions: for number of deaths during trial: 20 per group; for deaths (autopsy report summary) / production loss (deaths from infectious disease or weight loss): weaner period
Procedure: This trial evaluated the capacity of IL-5 to improve growth performance and immunity of pigs by comparing the growth rate and health of weaner pigs (28 day old weaners is Day 0 of the trial and the weaner period continued for 42 days) through to the finisher stage (Days 93 to 113) and slaughter (133 days after commencing the trial). The pigs were administered recombinant porcine cytokine, IL-5, and saline was used as a control, with and without standard weaner medicated water and feed in a commercial piggery environment.
40 pigs per treatment mixed in-groups of 20, with 4 replicates containing standard medicated water and feed and 4 replicates without medicated feed or water.
These are possibly a reflection of resistance to infections as all pigs were subjected to a severe exposure of pathogens (deaths occurred from H. parasuis “Glasser's”, APP and Swine dysentry).
The production loss in terms of deaths from infectious disease or weight loss as measured by weekly weighing is shown in FIG. 13. No deaths occurred in the IL-5 medicated group (FIG. 13), a factor that influenced the positive effect of IL-5 on increasing total group weight as described above (FIG. 10). The majority of deaths also included prior weight loss, but were recorded as deaths only. The antibiotic medicated groups had reduced numbers of pigs that lost weight during 1 or more weeks during the weaner period compared to the un-medicated groups. The first week after weaning was where the majority (>80%) of pigs lost weight.

[2] = system: eosinophils; assay: Example 2: high dose and multiple dose IL-5 on eosinophil numbers in blood; type: in vivo, pigs; conditions: rec.IL-5 IM 100 μg x1/x2/x4 or 500 μg x1
Procedure: This trial compared 2 doses of recombinant IL-5 (100 μg/500 μg) and compared multiple injections (x1/x2/x4) of one dose (100 μg) to elevate eosinophil numbers.
The experiment was conducted using medicated feed Barastoc EziWean 150 then Bunge Grolean CREEP ad libitum in an experimental environment (PC2 containment facilities). Blood total and differential counts were performed using a CellDyn 3700 haematology machine.
8 hrs later, bleed for haematology

[3] = system: haemorrhagic E. coli; assay: Example 6: haemorrhagic E. coli challenge of weaner pigs; type: in vivo; parameters: decrease in faecal shedding (total faecal culture scores) compared to saline treated controls / reduction in clinical signs compared to saline controls / reduction in E. coli culture scores at post-mortem compared to saline controls / reduction of bacterial load in the small intestine (foregut) compared with saline controls: concentration or dose not given beside the values
Procedure: Male weaner pigs, with a mean weight of 5.4 kg were allocated to groups of 8, with the mean weight being equalised between groups. Pigs were housed in group pens. Pigs were provided with pelleted feed and water ad libitum.
Pigs were treated with cytokines or the antibiotic, Apralan, and challenged with E. coli according to the schedule outlined in FIG. 42. E. coli were delivered orally in an 8 ml dose containing 10^8 cfu/ml. Blood was sampled from pigs by venipuncture at −2 days, day 0, and +6 days from initial challenge with E. coli as outlined in FIG. 42. Blood was assayed for immunological parameters as previously described. Pigs were weighed at day −2 and at the end of the trial on day 7.
Faecal samples were taken from each pig daily from day 2 to day 6 after challenge; these samples were cultured on sheep blood agar to quantify E. coli load. The condition of faeces on each day of challenge was noted as normal, wet or diarrhoea, as an indication of clinical signs.
At the conclusion of the experiment, pigs were euthanased and samples were taken from different areas in the gastro-intestinal tract, including the small intestine (25%, 50% and 75% along the length of the small intestine), the caecum and colon, and from the faeces. These post-mortem samples were also plated out on sheep blood agar to quantify E. coli load. Growth on sheep blood agar was scored from 0 to 5 (where 0 was no growth, 1 signified growth in the primary inoculum, 2 signified growth in the first streak, 3 signified growth in the 2nd streak, 4 signified growth in the 3rd streak, and 5 signified growth of E. coli in the final streak), and group means and standard errors were calculated.

[4] = system: Brachyspira (Serpulina) hyodysenteriae; assay: Example 7: swine dysentery challenge, IL-5 prophylactic; type: in vivo, pigs; parameters: reduction in the number of spirochaetes compared to saline treated pigs: concentration or dose not given beside the values
Excerpt: One aim of this example was to determine whether IL-5 could improve the health of pigs infected with an enteric inflammatory pathogen causing swine dysentery, Brachyspira (Serpulina) hyodysenteriae. A further aim was to determine whether IL-5 could improve the growth rate of pigs under conditions of challenge with swine dysentery.
Male pigs with a mean starting weight of 6.5 kg, were allocated to treatment groups consisting of eight pigs (Table 6). Pigs were housed in group pens, with each pen containing a replicate from each of the treatment groups. One group of 8 pigs was housed in a separate room and left uninfected to act as untreated controls. Pigs were provided with pelleted feed and water ad libitum.
Prior to swine dysentery challenge, pigs were treated with recombinant IL-5 or saline, as described in Table 6. Cytokines and the antibiotic, Lincomycin, were delivered by intramuscular injection at intervals outlined in Table 7. Pigs were infected with Brachyspira hyodysenteriae at day 0, day 1 and day 2, given as an oral bolus of 120 ml of spirochaete culture in log phase of growth, containing approximately […].
Faecal swabs and blood samples were taken from each pig at intervals described in Table 7. Faecal swabs were cultured for the presence of spirochaetes. Blood samples were assayed for immunological parameters as described in example 1 above. Pigs were weighed at weekly intervals throughout the experiment, which was terminated by euthanasia on days 19 and 20 after the initial challenge. At post mortem swabs from areas of the hindgut were cultured for the presence of spirochaetes, and the gross pathological condition of the gastro-intestinal tissue noted.

B1: interleukin 5 (protein, UniProt Q9MYM5 22-134, looked up)
Interleukin-5: VENTMNRLVAETLTLLSIHRTLLIGDGNLMISTPVHTNHQLCIEEVFQGIDTLKNQTARGDAVEKLFQNLSLIKEYIDRQKKNCGGERWRVTQFLDYLQVFLGVINTEWTMES
notes: recombinant porcine IL-5 protein expressed in E. coli; + / − = with / without antibiotic medicated feed and water, +p = weaner period only
- number of deaths during trial ([1]; Final (Day 133), medicated): 0
- number of deaths during trial ([1]; Final (Day 133), un-medicated): 3
- number of deaths during trial ([1]; Weaner (Day 42), medicated): 0
- number of deaths during trial ([1]; Weaner (Day 42), un-medicated): 2
- condition and health of pigs ([1]; medicated): excellent condition and health compared to other groups
- deaths (autopsy report summary) ([1]; medicated): No deaths or intervention
- production loss (deaths from infectious disease or weight loss) ([1]; medicated): no pig from the medicated IL-5 treatment group lost weight or died from infectious disease
- production loss (deaths from infectious disease or weight loss) ([1]; un-medicated): reduced production loss
- deaths (autopsy report summary) ([1]; unmedicated): 2x H. parasuis
- average percentage eosinophil of WBC over 11 days (area under the curve) [2]: increased eosinophil numbers in blood and higher dose and multiple doses were statistically significant and 4 injections of 100 μg (Days 0, 1, 4, 7) being more effective than a single injection of a higher single dose (500 μg)
- clinical signs (wet faeces or diarrhoea) ([3]; 5 days after challenge): fewer recorded cases of wet faeces and diarrhoea than saline controls or Apralan treatment
- E. coli shedding in faeces (faecal culture) ([3]; day 2 to day 6 after challenge): decreased E. coli shedding in faeces
- decrease in faecal shedding (total faecal culture scores) compared to saline treated controls ([3]; entire challenge period): 43%
- reduction in E. coli culture scores at post-mortem compared to saline controls ([3]; gastro-intestinal tract total): 15%
- appetite (daily feed intake per pig) during E. coli challenge ([3]; pig, in vivo): improved appetite compared to saline treated pigs
- bacterial load in areas of the gastro-intestinal tract at post-mortem ([3]; pig, in vivo): reduced bacterial load in most areas of the gastro-intestinal tract
- days after challenge with bacterial shedding significantly less than saline treated controls ([3]; pig, in vivo): 3/5
- group mean total E. coli culture score at post-mortem (out of a possible 30) ([3]; pig, in vivo): less than 15
- reduction in clinical signs compared to saline controls ([3]; pig, in vivo): 64%
- reduction of bacterial load in the small intestine (foregut) compared with saline controls ([3]; post-mortem): 36%
- spirochaete shedding in faeces (faecal culture) ([4]; after challenge): decreasing levels of spirochaete shedding by day 14 after challenge
- reduction in the number of spirochaetes compared to saline treated pigs ([4]; anterior colon, post mortem): 63%
- reduction in the number of spirochaetes compared to saline treated pigs ([4]; caecum, post mortem): 60%
- reduction in the number of spirochaetes compared to saline treated pigs ([4]; faecal, post mortem): 68%
- number of spirochaetes cultured from the hindgut at post mortem ([4]; pig, in vivo): reduced the number of spirochaetes residing in the gut compared to saline controls; also recorded: comparable to that shown by the Lincocin antibiotic
- incidence of clinical signs in faeces (of 8 pigs) ([4]; post mortem): 3 pigs
- reduction in the number of spirochaetes compared to saline treated pigs ([4]; posterior colon, post mortem): 47%
